Assay results reported in patent US7098001B2, “Polypeptides having dipeptidyl aminopeptidase activity and nucleic acids encoding same” (Novozymes, Inc., priority 1997, dated 2006).

What was measured:
[1] = pH optimum / pH-activity profile of dipeptidyl aminopeptidase I with Ala-Pro-pNA; type: biochemical; conditions: for Average Activty: 2 mg/ml Ala-Pro-pNA, ambient temperature, 5 minutes; for Avg. Activity-Background: corrected for autohydrolysis of Ala-Pro-pNA
Experimental: The Ala-Pro-pNA substrate was prepared by dissolving 100 mg of Ala-Pro-pNA in 1 ml of DMSO and adding 20 μl of the Ala-Pro-pNA-DMSO solution to 980 μl of the universal buffer at the various pH values at ambient temperature. The assay was initiated by adding a 10 μl aliquot of the dipeptidyl aminopeptidase I diluted 20-fold in water to 200 μl of 2 mg/ml Ala-Pro-pNA at the various pH values. The absorbance at 405 nm was monitored for 5 minutes. Autohydrolysis of the substrate as a control was determined by adding 10 μl of water to 200 μl of 2 mg/ml Ala-Pro-pNA at the various pH values.

[2] = temperature stability of dipeptidyl aminopeptidase I; type: physicochemical; conditions: for Percent activity relative to 37iC.: 20 minutes, pH 7.5, no substrate, assayed with Ala-Pro-pNA
Experimental: The temperature stability of the dipeptidyl aminopeptidase I was determined using the following protocol: 490 μl of 50 mM sodium phosphate buffer pH 7.5 was preincubated at 37 ? , 45 ? , 55 ? , 60 ? , 65 ? , 70 ? , and 75 ? C for 30 minutes in a 1.7 ml Eppendorf tube. Then 10 μl of purified dipeptidyl aminopeptidase I was added and the sample was then incubated for an additional 20 minutes. The samples were then placed on ice. Once the incubations were completed for all the temperatures, the samples were then assayed for activity using Ala-Pro-pNA as substrate.
The assay was performed by mixing 30 μl of the incubation mixtures for the various temperatures with 200 μl of 2 mg/ml Ala-Pro-pNA in 50 mM sodium phosphate pH 7.5 buffer) at ambient temperature. The absorbance at 405 nm was monitored for 5 minutes.

[3] = synergism of aminopeptidase I and dipeptidyl aminopeptidase I on Ala-Phe-Pro-pNA; type: biochemical; conditions: 100-fold diluted enzyme alone, over 10 minutes
Experimental: The substrate was prepared by dissolving 2 mg of Ala-Phe-Pro-pNA (Bachem, Torrance, Calif.) in 20 μl of DMSO. Then, 980 μl of 50 mM sodium phosphate buffer pH 7.5 and 100 μl of ethanol were added. In a 96 well microtiter plate, 100 μl of the Ala-Phe-Pro-pNA solution was added to 100 μl of 100-fold diluted aminopeptidase I (Example 12); 100 μl of the Ala-Phe-Pro-pNA solution was added to 100 μl of 100-fold diluted dipeptidyl aminopeptidase I (Example 11); and 100 μl of the Ala-Phe-Pro-pNA solution was added to a mixture of 50 μl of 100-fold diluted aminopeptidase I and 50 μl of 100-fold diluted dipeptidyl aminopeptidase I. The absorbance at 405 nm was measured for 10 minutes.

[4] = test system: gelatin, soy bean meal tablets, wheat gluten, and sodium-caseinate; assay: degree of hydrolysis (DH) assays, OPA method; type: biochemical; conditions: 0.125 mg added to FLAVOURZYME 3 mg and ALCALASE 3 mg; 50 C, 18 hours; all proteins tested
Experimental: The degree of hydrolysis (DH) assays were performed at 50 ? C for 18 hours as a mini-hydrolysis on a 10 ml scale using gelatin, soy bean meal tablets, wheat gluten, and sodium-caseinate at a 2% concentration adjusted to pH 7, if necessary, with no pH adjustment during hydrolysis. The hydrolyses were inactivated at 85 ? C for 3 minutes in a waterbath. The enzymes used were FLAVOURZYME™ with ALCALASE™ 2.4L (Novo Nordisk A/S, Bagsvrd, Denmark) and dipeptidyl aminopeptidase I with FLAVOURZYME™ and ALCALASE™ 2.4L. FLAVOURZYME™, ALCALASE™, and dipeptidyl aminopeptidase I were dosed at 3 mg, 3 mg, 0.125 mg, respectively, per 200 mg of protein per ml.
The DH, as defined by Adler-Nissen (1986, Enzymic Hydrolysis of Food Proteins, Elsevier Applied Science Publishers), was determined by reaction of the supernatant with OPA (ortho-phtaldialdehyde, Sigma Chemical Co., St. Louis, Mo.). […]
A volume of 25 μl of suitably diluted supernatant was mixed with 200 μl of OPA reagent in a microtiter plate well and allowed to react for exactly 2 minutes at 25 ? C The absorbance at 340 nm was measured in a microtiter plate reader and compared to the absorbance of a […] L-serine standard solution after subtraction of the blank value (water reacted with OPA-reagent). […] The degree of hydrolysis was calculated on basis of the total amount of protein in the hydrolysis mixture (not on basis of soluble protein).

B1: dipeptidyl aminopeptidase I: Recombinant Aspergillus oryzae 1568 (ATCC 20386) dipeptidyl aminopeptidase I, 771 amino acids (SEQ ID NO:2), produced in Fusarium and purified (protein, listed as Aspergillus oryzae)
chain: MKYSKLLLLLVSVVQALDVPRKPHAPTGEGSKRLTFNETVVKQAITPTSRSVQWLSGAEDGSYVYAAEDGSLTIENIVTNESRTLIPADKIPTGKEAFNYWIHPDLSSVLWASNHTKQYRHSFFADYYVQDVESLKSVPLMPDQEGDIQYAQWSPVGNTIAFVRENDLYVWDNGTVTRITDDGGPDMFHGVPDWIYEEEILGDRYALWFSPDGEYLAYLSFNETGVPTYTVQYYMDNQEIAPAYPWELKIRYPKVSQTNPTVTLSLLNIASKEVKQAPIDAFESTDLIIGEVAWLTDTHTTVAAKAFNRVQDQQKVVAVDTASNKATVISDRDGTDGWLDNLLSMKYIGPIKPSDKDAYYIDISDHSGWAHLYLFPVSGGEPIPLTKGDWEVTSILSIDQERQLVYYLSTQHHSTERHLYSVSYSTFAVTPLVDDTVAAYWSASFSANSGYYILTYGGPDVPYQELYTTNSTKPLRTITDNAKVLEQIKDYALPNITYFELPLPSGETLNVMQRLPPGFSPDKKYPILFTPYGGPGAQEVTKRWQALNFKAYVASDSELEYVTWTVDNRGTGFKGRKFRSAVTRQLGLLEAEDQIYAAQQAANIPWIDADHIGIWGWSFGGYLTSKVLEKDSGAFTLGVITAPVSDWRFYDSMYTERYMKTLSTNEEGYETSAVRKTDGFKNVEGGFLIQHGTGDDNVHFQNSAALVDLLMGDGVSPEKLHSQWFTDSDHGISYHGGGVFLYKQLARKLYQEKNRQTQVLMHQWTKKDLEE
[1]; Ala-Pro-pNA as substrate
  pH of optimal activity: ~8.7
[1]; measured pH range
  pH range over which activity toward Ala-Pro-pNA was possessed: 4.35 to 9.83
[1]; pH 4.35
  Average Activty: 8.75 mOD/min
  Avg. Activity-Background: 8.75 mOD/min
[1]; pH 4.35, relative to pH 8.71
  Relative Activty: 0.023
[1]; pH 4.87
  Average Activty: 32.5 mOD/min
  Avg. Activity-Background: 32.5 mOD/min
[1]; pH 4.87, relative to pH 8.71
  Relative Activty: 0.088
[1]; pH 5.36
  Average Activty: 75.75 mOD/min
  Avg. Activity-Background: 75.75 mOD/min
[1]; pH 5.36, relative to pH 8.71
  Relative Activty: 0.20
[1]; pH 5.86
  Average Activty: 113.8 mOD/min
  Avg. Activity-Background: 113.8 mOD/min
[1]; pH 5.86, relative to pH 8.71
  Relative Activty: 0.307
[1]; pH 6.38
  Average Activty: 135.48 mOD/min
  Avg. Activity-Background: 135.48 mOD/min
[1]; pH 6.38, relative to pH 8.71
  Relative Activty: 0.365
[1]; pH 6.85
  Average Activty: 168.45 mOD/min
  Avg. Activity-Background: 166.45 mOD/min
[1]; pH 6.85, relative to pH 8.71
  Relative Activty: 0.45
[1]; pH 7.2
  Average Activty: 188.86 mOD/min
  Avg. Activity-Background: 186.86 mOD/min
[1]; pH 7.2, relative to pH 8.71
  Relative Activty: 0.503
[1]; pH 7.51
  Average Activty: 230.97 mOD/min
  Avg. Activity-Background: 227.97 mOD/min
[1]; pH 7.51, relative to pH 8.71
  Relative Activty: 0.615
[1]; pH 7.97
  Average Activty: 308.52 mOD/min
  Avg. Activity-Background: 302.72 mOD/min
[1]; pH 7.97, relative to pH 8.71
  Relative Activty: 0.817
[1]; pH 8.71
  Relative Activty: 1
  Average Activty: 383.15 mOD/min
  Avg. Activity-Background: 370.65 mOD/min
[1]; pH 9.32
  Average Activty: 247.68 mOD/min
  Avg. Activity-Background: 217.88 mOD/min
[1]; pH 9.32, relative to pH 8.71
  Relative Activty: 0.588
[1]; pH 9.83
  Average Activty: 171 mOD/min
  Avg. Activity-Background: 97 mOD/min
[1]; pH 9.83, relative to pH 8.71
  Relative Activty: 0.261
[2]; 37 C
  Percent activity relative to 37iC.: 100%
[2]; 45 C
  Percent activity relative to 37iC.: 103%
[2]; 55 C
  Percent activity relative to 37iC.: 103%
[2]; 65 C
  Percent activity relative to 37iC.: 92.5%
[2]; 70 C
  Percent activity relative to 37iC.: 37.7%
[2]; 75 C
  Percent activity relative to 37iC.: 0.7%
[2]; after a 20 minute incubation at 65 C, pH 7.5
  activity retained: 90%
[3]
  activity on Ala-Phe-Pro-pNA: no activity
[4]
  increase of the degree of hydrolysis above FLAVOURZYME and ALCALASE alone: 5%
